This passage reports Kd results from PMC5080453 (2016).

The assay has as its target BMPER_N (Homo sapiens (Human), UniProt Q8N8U9). The assay is described as follows: SPR (Tsg on chip); one cell MST.

BMPER_N, sequence (Q8N8U9 40-369): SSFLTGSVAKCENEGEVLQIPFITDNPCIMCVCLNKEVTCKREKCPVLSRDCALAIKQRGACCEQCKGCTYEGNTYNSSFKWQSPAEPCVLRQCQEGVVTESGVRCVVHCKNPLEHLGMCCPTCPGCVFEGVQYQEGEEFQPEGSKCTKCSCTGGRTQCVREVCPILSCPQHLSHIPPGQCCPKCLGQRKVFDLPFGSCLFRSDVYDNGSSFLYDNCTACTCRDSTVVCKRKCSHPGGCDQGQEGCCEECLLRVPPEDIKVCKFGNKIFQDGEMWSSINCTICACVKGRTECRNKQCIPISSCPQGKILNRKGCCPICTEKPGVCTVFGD

B1: TWSG1 (protein)
chain: CNKALCASDVSKCLIQELCQCRPGEGNCSCCKECMLCLGALWDECCDCVGMCNPRNYSDTPPTSKSTVEELHEPIPSLFRALTEGDTQLNWNIVSFPVAEELSHHENLVSFLETVNQPHHQNVSVPSNNVHAPYSSDKEHMCTVVYFDDCMSIHQCKISCESMGASKYRWFHNACCECIGPECIDYGSKTVKCMNCMF
B1: binding was characterised by a dissociation constant (Kd) of 0.55 nM.
